Results as given in the supplement of paper PMC11502859.
Values joined by “and” are separate entries in the source; they are usually repeats but may differ in a detail not shown here. Equal entries are not always repeated.

Tested on: HEK293T
Experiment: median enrichment of reporter reads in eGFP-reduced (low/intermediate) vs eGFP-high sorted cells (eGFP-extension fusion abundance) (ratio); higher = stronger loss of eGFP-fusion protein abundance (more destabilising extension)
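Note: lentiviral eGFP-IRES-mCherry reporter pool sorted by FACS 96 h post-transduction, gated on mCherry-high cells, Illumina read counts normalized per million, median across four biological replicates.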

Substance	median enrichment
YEAPS [OR1L8]	1.07
KKCEECGKSFS [ZNF676]	0.361
WDGR [ZNF772]	0.288
WSICLLNDTSLIYCTIS [RTCA]	12.5
LNGVQAQRPLGVMTKCSCTTVLKELRLLPFF [DYTN]	8.97
RTDCRSWEPRHAQASAEGAAGGSARLDPWHLIKKFSLMSMVVGQPSSLSQQAHAASVTSSPAVYTGHCGPEWLGPCRSYTTGC [ZFPM1]	4.58
YYYYYYYYYY [Tyr10]	6.9
QGNPRSNQGGGS [POLA1]	0.576
YGF [ITSN2]	0.445
QGVSLSLSFCIICLAECVYRLPKFTKKL [VNN2]	10.5
GAFFLEEESENFQTTAADSALMGCWLIGVLSMGDWNFFFV [ZNHIT6]	8.19
NNNNNNN [Asn07]	0.297
CRALMSPTRKLTPNKRLPFPLGFFVLFLSKRDR [IPO5]	4.2
VVVVVVV [Val07]	7.67
CDAQTASSATKRPENSRFTTFLSHVEAFPFNRGPSSEPRPISAIFFS [LMBR1]	12
LNILKCKASTV [TRAPPC6B]	1.63
LGGRCRKHLEQPQSHGAEGAGAAPVIGRGIPSVCSASCLLNKGLFLTHK [CUL9]	14.9
QQQQ [Gln04]	0.501
QTVKEGVFVWTR [DSC1]	2.42
SHVGQIKRQLQK [CTSO]	0.527
QELSERCSIPFPHGKAK [ASXL3]	0.227
RESLHLEITTGYASGI [ZNF41]	5.83
WIEKI [GTF2A2]	1.64
AAAAAAAAAA [Ala10]	8.89
LLASIS [TENT2]	5.22

Substance	median enrichment
WASSPPAHVMKQRFGLVAHCLWPPSPAQPQASQPQTLESPTTMERWAVAMVDGLPGWAFELALGTTRLSLSSHGTQKCAAMLP [ADGRG1]	5.77
LIIMLKSALTFLR [MCF2L2]	15.2
SNVIPLKRKMNNTLN [HRG]	0.435
YSPTPTAAYLHFQFLRGTEASSQHAANLWSLILTPSPTPVVGLYYV [KIF5A]	6.66
RPETECQPKESSCKTVIYCEYLHHMGSLMVNIFLQSC [TXK]	12.5
KKEKKQAILDENANGKIHITSYLL [PRDM4]	6.45
EVHTVCHRMAHVIAHFCVDMVLV [ATP5IF1]	11
LPVGCFTSTPAPPASNAHSTPNTTPCPTNAHSRAW [C1QB]	1.02
LLLEIRLLQLDV [CDC27]	10.6
YINEENKRS [CLEC7A]	0.716
YVRTVG [UFD1]	3.02
LGFRSAT [KIF15]	1.28
WFFCFNKQQ [TMEM31]	6.9
WRLIIYQEC [PKIB]	7.89
CCC [Cys03]	1.07
WGSAQISVVRKPVPLGFSPHTTACRTLEWTQSSH [CA6]	7.98
CDQLSCTNFEV [IFNGR1]	0.207
SGSVTRCSLIPADLTGPLANPTSNQKCSSVESETGKWLLQDYSLLQKRNQIHEWKSLCKFNFITHNMYYFF [PUM1]	8.89
ESSTLLLQWVQKLLRPVVK [MYLK3]	7
SGLSDCPCPAHHPVTATPKPTPTGAHCPTPAPGRHPAGHFTCCH [FERMT3]	1.55
RALLAPAFHALPIPPPPPPPPATEGRPEPPSLPSPLGGRGGHWKGGTPPPQQLRRGFWN [TOMM40]	0.777
GSSTETGASSSSLGCGPSSRTRTSATSRASWRAWASARAASSLTASAASSAA [CCM2L]	13.6
SILFHLILALHLLYISPE [CLRN3]	9.21
WFC [HNRNPF]	2.6
GGGGGGGG [Gly08]	1.64

Substance	median enrichment
WQLPGDSRLSDSLQEKTVRPPFGPH [SYCE2]	0.972
RERGLSSSLPAPSSPRPSSLCAW [HOXC10]	4.17
CEGQTPEEPLQ [CXCL12]	0.136
QDTVNSSSKILACKHPLKFKRGKIKYNEF [ANKRD30BL]	1.66
WILAELLCT [COPS4]	5.2
WMVLSAGSPLRSGQRKMGGCSSPPQHNDQPPS [NLRP12]	13.1
LSEQVNSRTGAEALPKMK [UVRAG]	0.405
SVWGLAPCSPGPHCSHTLRLGPPSLLWC [TOM1]	8.98
YINKIRRGSETEKEKAKDWFVCLISFC [NR2F2]	9.01
SQESRASLPRIAFIPKFAWK [CMBL]	2.33
RPLLRVCPAPFHQ [DYRK4]	1.43
ELLPLSTRSSWQRELRTAAALSVRWRPTSRFCPALCG [ACVR1B]	9.04
LKVLAGFT [DACH2]	4.2
YDSISP [CBLN4]	0.384
SLRLQRLLCIAFLLQCKERDQGSQEMFAQNGR [GDNF]	8.43
ERAPTGRWGRRG [Degron KLHDC3]	5.05
KSIIILQHLRVWQLFVWAFAHAMPSLPSPTPTRGDS [SPATA12]	8.97
RTSARPARPFPTST [ISLR2]	0.582
LKWAEPKFGVLHRAPFLHPWGGAQLGATLTMPRPHPVQHSQSSHLHPRTVGAGRHFPLEHVLRSITLGPTARLSLPPGSCMRS [SCARA5]	5.99
EVNV [CLEC2B]	0.328
YYY [Tyr03]	1.14
CTTQDTHSTCMNNTGHTQARA [CCDC40]	1.14
LFSFQILGTETI [FBXO4]	14.6
QSVISFICCINV [LRP1B]	11.7
YLTLHLSSGCQGRRRSQQAPLFCSLSPEAEHMFSEKLLLRTF [RAF1]	6.79

Substance	median enrichment
QSTF [ST8SIA4]	0.477
ASVLLRGAVCGEGLSWQGKHLRVTLTLGPLLFLKRLLATGKKNDLATLEETSAKEDVLASLSYFCSVVDLHIVVYLVWKCVSK [POLR1D]	7.42
QTAKKEKLN [PTMA]	0.399
GGRVGHPKR [ZNF786]	0.607
GHACLPNTIWSWTTFDTNQSYWTRPLEDLKYTSHAVVYLGCDSLSNAALGKDESDLQGEKCNHTWAPVNYGTEGPNCSPKGAA [APOBEC2]	3.91
YNYLLNQDKHAFLLPWFYL [NCKAP1]	8.38
GTSPAPLRTPPRLDGWAHASHWGPGSRRWAPTLGPRGAANHTGLRPSYPAPSPSTSTFTSPPFHFFLYVFFLLETDSIHIEYN [JUNB]	4.58
WQAAGAWGLHWLPPAP [HNF4A]	5.96
QDFMHSSERVTVTTVLSPISHKLLFVSKRMLLLLHCFPFAGTCWCLLLNWPALLAVWHCSLGRLLCSLYLHYRLVNLPTSSL [DCUN1D4]	6.12
YPPAQPRTDMNIGWTEVASV [PIP4K2A]	5.83
QLYHYSRSSSQHHLLATWDV [GCG]	16.8
KITF [SNCAIP]	0.77
YVPVSPFIAAFPWGRQ [CXCR5]	6.43 and 2.95
WGGLN [OR3A1]	1.04
CQVLCGAEIPCRHFACSNQQDPAPRSPGAIIMQPAVLLWRGQVTFQKTPSWMGLPFCSSPHSRISNGSLL [BCL2L11]	11
GGGGGG [Gly06]	2.43
WFST [SEMA3D]	2.02
SSNLF [ADPRM]	0.584
LRGPSPPPMAGG [Degron KLHDC2]	5.1
FFFFFF [Phe06]	9.02
CGWNQGQPALRASVLLRGAVCGEGLSWQGKHLRVTLTLGPLLFLKRLLATGKKNDLATLEETSAKEDVLASLSYFCSVVDLHI [POLR1D]	8.09
QTGFLSSLKRLLCLRKSICCVSLASGSRTDLQLPNWILLPRSCSEVSFYHSAL [HLA-DPB1]	7.45
GPWDTAFSFARLSACRPGGEPGPANESLVYLGCNSLKVQSFGLQSCPGPGSPGHCCSPRPWALVFLQHHTCCPFSISVCVKGD [MYO1F]	5.6
CSFPVPSHYSPKLGKGGGTYEKNSSGFITDWE [CNOT9]	3.28
SISPSC [OR5AK2]	0.461

Substance	median enrichment
EVGVRSPYSACCPGCAAQLDSASQHLPPRSFLLFIPIFTPKTSLSLFTPPKPLSHAGPLKPQLPTILREHPLPSLPFPALKPA [GSTM2]	5.73
SGLDSTRALENEMTV [APCS]	0.582
SGWLSTCSSWMASGPKLQSLNDQEQHEGLGTYPCKEFLDG [SQOR]	1.57
QNIQVINELCYGIIALLYAG [CC2D2B]	8.94
KRYPLNIFVEVSYLYQRLGLPI [C7orf25]	15.9
KPERSQDPSRQHQLTDALVVPPSSPDCARSAVPSSGHLSSLWVPPHPSPC [RBP5]	5.79
RGSRRKQDTRWQA [PHGR1]	3.92
CGAARRSR [METAP1D]	1.33
SGLLPLGPLTLSGWWTTKYNPVYNLKIYFTFVLLYLFIKG [SMAD4]	7.74
YLCISRAHTYIVAYSQHGSRPALLI [RANBP9]	2.61
YSCVVSLLEIELA [DGKB]	7.27
KILNLVCRPSRGIKRLALVVKNKADSQTRSDFCPCSSFDVLSVALFLIASSTCKMLFTFCLG [DAB2]	18.3
QSPSAARKCWSWSKIGFFKIFLVIREYI [PSD3]	7.26
YRKVSVSPNPHSNEF [GPR22]	41.8
WSDCPENQKSKETRETSSLVNEPIKSRSLKKYVSVKKENRIVTVSSKTNKSKSSPLEHSESDTLGCDFEFQESIHSLSHLSYD [CEP78]	1.3
LYVTVSCLSSSMYF [ARHGEF35]	14.4
QAAVAPGDVCFIVPFFLLV [CCNB2]	8.22
III [Ile03]	3.74
YSQRGGQSQSQLLSCPLLPARALVLTPSCIPHLRSVY [SLC2A11]	11.1
QSSYPLEEDCFQII [KDSR]	0.764
LASDLPNDLLLAQLDARQARLSLC [BNC2]	4.33
YALDKNLNRKNNSKAYLMKQ [CYLC2]	2.34
WALHPARS [IQCD]	0.961
RSCAAQSQTPAPTTYFCYTQEHFRKLSQLIFCFSSMSILSVSHFEDFFSLLYLCFSFFGFYFVVLSVIFNVPKICTCSIKNVV [HOOK3]	3.09
RAAQKETTKPLTVVTLDKETPVA [CAPRIN2]	45.5
